Biological target: T1, SARS-CoV-2 spike receptor binding domain (RBD) (SARS-CoV-2, UniProt P0DTC2 319-541)
T1 construct: domain: RBD

B1: coiled-coil domain of the cartilage oligomeric matrix protein (C) (other)
chain: GDLAPQMLRELQETNAALQDVRELLRQQVKEITFLKNTVMECDACGKLN
notes: also called parent protein C; ccCOMP
B1: no binding.
